Assay results as given in PMC8580320 (Science Advances, 2021).

Biological target: the molecule itself
Assay: crystal structure

B1: MtaLonC-S582A (enzyme)
chain: MRLSYEALEWRTPIENSTEPVSLPPPPPFFGQERAREALELAIRGGFHAYLVGPPSLGKHEALLAYLSTQSVETPPDLLYVPLSERKVAVLTLPSGQEIHLAEAVEGLLLEVNRLDELFRQGSFLREKTQLEARFKEAREQQLEALRREAQEAGFALSTNGERLELTGPGPVPAELSARLEEVTLGSLAASAELEVALRRLRRDWALHYLNNRFEPLFQRFPQARAYLEALRARLARYAETGEPLDPAQWRPNLLTSSSSGTPPPIVYEPYATAPRLFGRLDYLVDRGVWSTNVSLIRPGAVHRAQGGYLILDALSLKREGTWEAFKRALRNGQVEPVTEPQAPAGLEVEPFPIQMQVILVGTPEAFEGLEEDPAFSELFRIRAEFSPTLPASPENCTALGGWLLAQGFQLTQGGLTRLYDEARRMAEQRDRMDARLVEIRALAEEAAVLGGGLLTAESVEQAIAAREHRSFLSEEEFLRAVQEGVIRLRTTGRAVGEVNSLVVVEAAPYWGRPARLTARAAPGRDHLISIDREAGLGGQIFHKAVLTLAGYLRSRYIEHGSLPVTISLAFEQNYVSIEGDAAGLAELVAALSAIGNLPLRQDLAVTGAVDQTGKVLAVGAINAKVEGFFRVCKALGLSGTQGVILPEANLANLTLRAEVLEAVRAGQFHIYAVETAEQALEILAGARMEGFRGLQEKIRAGLEAFARLEEGHDKEDREKLAAALEHHHHHH
  stoichiometry N: 6
